Measured values from patent US7115711 (GENERAL HOSPITAL, dated 2006).

T1: LexA-RXR (bacterial; human, UniProt P0A7C2 1-202; P19793 196-462, limits assumed)
T1 construct: also called Lex fusion RXR
T1 sequence (looked up): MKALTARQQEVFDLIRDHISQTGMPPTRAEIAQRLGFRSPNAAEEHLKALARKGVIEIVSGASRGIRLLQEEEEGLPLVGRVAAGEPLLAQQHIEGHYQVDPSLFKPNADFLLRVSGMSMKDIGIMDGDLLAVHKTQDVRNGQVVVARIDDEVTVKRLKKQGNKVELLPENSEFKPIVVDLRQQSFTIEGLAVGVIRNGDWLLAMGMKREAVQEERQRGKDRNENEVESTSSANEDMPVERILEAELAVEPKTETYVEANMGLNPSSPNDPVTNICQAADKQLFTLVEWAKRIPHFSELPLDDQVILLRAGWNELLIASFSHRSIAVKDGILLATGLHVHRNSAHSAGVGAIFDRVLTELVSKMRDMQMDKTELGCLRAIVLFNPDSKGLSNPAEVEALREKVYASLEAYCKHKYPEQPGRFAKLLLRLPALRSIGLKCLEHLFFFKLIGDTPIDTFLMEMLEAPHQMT

B1: B42-RAR (other, mouse, UniProt P11416 132-462, looked up, not shown: large carriers)
chain: INKVTRNRCQYCRLQKCFDVGMSKESVRNDRNKKKKEAPKPECSESYTLTPEVGELIEKVRKAHQETFPALCQLGKYTTNNSSEQRVSLDIDLWDKFSELSTKCIIKTVEFAKQLPGFTTLTIADQITLLKAACLDILILRICTRYTPEQDTMTFSDGLTLNRTQMHNAGFGPLTDLVFAFANQLLPLEMDDAETGLLSAICLICGDRQDLEQPDKVDMLQEPLLEALKVYVRKRRPSRPHMFPKMLMKITDLRSISAKGAERVITLKMEIPGSMPPLIQEMLENSEGLDTLSGQSGGGTRDGGGLAPPPGSCSPSLSPSSHRSSPATQSP
notes: range 132-C-terminus; All six isolated clones start at amino acid 132; also called RARα (six clones)
B2: B42-PPAR clone starting at amino acid 170 (other, mouse, UniProt P23204 170-468, looked up, not shown: large carriers)
chain: AIRFGRMPRSEKAKLKAEILTCEHDLKDSETADLKSLGKRIHEAYLKNFNMNKVKARVILAGKTSNNPPFVIHDMETLCMAEKTLVAKMVANGVEDKEAEVRFFHCCQCMSVETVTELTEFAKAIPGFANLDLNDQVTLLKYGVYEAIFTMLSSLMNKDGMLIAYGNGFITREFLKNLRKPFCDIMEPKFDFAMKFNALELDDSDISLFVAAIICCGDRPGLLNIGYIEKLQEGIVHVLKLHLQSNHPDDTFLFPKLLQKMVDLRQLVTEHAQLVQVIKKTESDAALHPLLQEIYRDMY
notes: range 170-C-terminus; Only the start is stated; also called PPAR (one clone)

Experiments:
[1] = molecular target: T1, LexA-RXR; experiment: yeast interaction trap screen; clones showing specific interaction with LexA-RXR; all six clones start at amino acid 132
Method: (§1) From 3×10^6 primary yeast transformants, a number of β-gal expressing colonies were identified in two independent screens carried out in the presence or absence of 9-cis-RA. Since expression of the B42-cDNA fusion proteins was induced by growth on galactose, candidates obtained from each condition were tested for galactose-dependent expression of both β-gal and LEU2, in the presence or absence of 9-cis-RA, using appropriate indicator plates (see below).
(§2) Candidates showing specific interaction with LexA-RXR were sequenced across the B42 fusion junction using an appropriate vector primer, and additional sequence was determined. The deduced amino acid sequences were compared to those in the GenBank and EMBL databases using the GCG (Devereux et al., Nucleic Acids Res. 12:387–395, 1984) and BLAST programs (Altschul et al., J. Mol. Biol. 215:403–410, 1990). […] All of these clones included intact ligand binding domains, as expected from the fact that the major heterodimerization function lies within that domain. For PPAR (Issemann et al., Nature 347:645–650, 1990), three clones started at amino acid 84, just N-terminal to the DNA binding (C) domain, four others started at 91, within the C domain, and one at 170, just past the C domain. For RAR (Leroy et al., EMBO J. 10:59–69), all six clones started at amino acid 132, within the C domain.

[2] = molecular target: T1, LexA-RXR; experiment: yeast interaction trap screen; clones showing specific interaction with LexA-RXR; one clone starting at amino acid 170
Method: as §1, §2

Binder | binding result [1] | binding result [2]
B1 | binds | 
B2 |  | binds
